From patent publication US20220146535A1

Legend:
[1] = target: recombinant hTau-pT217 protein having the amino acid sequence of SEQ ID NO: 1 (human) (UniProt P10636); test: BLI (Octet Red96), antibody captured on Protein A biosensor, hTau-pT217 in solution, KD=koff/kon; column head prints (nM), paragraph 52 says molar units; not normalized for avidity
[2] = target: recombinant hTau-pT217 protein having the amino acid sequence of SEQ ID NO: 1 (human) (UniProt P10636); test: BLI (Octet Red96), antibody captured on Protein A biosensor, hTau-pT217 0.4115-300 nM in solution, 1:1 fit, 25 C
[3] = target: recombinant hTau-pT217 protein having the amino acid sequence of SEQ ID NO: 1 (human) (UniProt P10636); test: BLI (Octet Red96), antibody captured on Protein A biosensor, hTau-pT217 in solution, 1:1 fit, 25 C; column head prints (M^-1s^-1 units), paragraph 52 says s^-1
[4] = target: T1, N-terminal biotin labeled peptide of SEQ ID NO. 26 without phosphorylated threonine at residue 7 (human); test: BLI (Octet Red96), biotinylated peptide on streptavidin biosensor, IgG at 5 ug/mL, 300 s association and 300 s dissociation
T1 sequence (peptide, N-terminal biotin; threonine at residue 7 not phosphorylated): RTPSLPTPPTR

[5] = target: N-terminal biotin labeled peptide of SEQ ID NO. 26 with phosphorylated threonine at residue 7 (human); test: as above

UniProt P10636, sequence (P10636 other isoform, or with tags, fused parts or gaps limits assumed): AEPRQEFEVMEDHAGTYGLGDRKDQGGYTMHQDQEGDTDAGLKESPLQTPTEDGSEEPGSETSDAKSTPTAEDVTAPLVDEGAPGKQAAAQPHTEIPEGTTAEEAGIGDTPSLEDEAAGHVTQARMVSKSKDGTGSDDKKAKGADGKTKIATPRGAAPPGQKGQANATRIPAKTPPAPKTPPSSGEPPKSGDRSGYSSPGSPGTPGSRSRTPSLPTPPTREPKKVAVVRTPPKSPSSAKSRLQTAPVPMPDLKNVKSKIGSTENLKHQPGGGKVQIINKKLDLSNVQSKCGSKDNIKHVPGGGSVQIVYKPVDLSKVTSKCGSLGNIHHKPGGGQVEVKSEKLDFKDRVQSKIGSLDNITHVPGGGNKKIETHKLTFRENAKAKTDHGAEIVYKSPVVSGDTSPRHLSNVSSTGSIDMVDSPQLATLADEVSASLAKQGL

Kd [1]: 0.695 nM
kon [2]: 339000 M⁻¹ s⁻¹
koff [3]: 0.000236 s⁻¹
binding signal at the end of dissociation [4]: -0.0024 nm
binding signal at the end of dissociation [5]: 4.42 nm
B1: mAb A, exemplified rabbit anti-hTau-pT217 antibody (antibody)
heavy: QSVEESGGRLVTPGTPLTLTCTVSGLSPSWYGVHWVRQAPGKGLEWIGVLRAGSHTYYAGWAKGRFAISKTSTTVALKITSPTTEDTAIYFCGSVGRGIWGPGTLVTVSLGQPKAPSVFPLAPCCGDTPSSTVTLGCLVKGYLPEPVTVTWNSGTLTNGVRTFPSVRQSSGLYSLSSVVSVTSSSQPVTCNVAHPATNTKVDKTVAPSTCSKPTCPPPELLGGPSVFIFPPKPKDTLMISRTPEVTCVVVDVSQDDPEVQFTWYINNEQVRTARPPLREQQFNSTIRVVSTLPIAHQDWLRGKEFKCKVHNKALPAPIEKTISKARGQPLEPKVYTMGPPREELSSRSVSLTCMINGFYPSDISVEWEKNGKAEDNYKTTPAVLDSDGSYFLYSKLSVPTSEWQRGDVFTCSVMHEALHNHYTQKSISRSPGK
light: AQVLTQTASPVSATVGGTVTINCQASLAVYNNNYLAWYQQKPGQPPKRLIYLASSLSSGVSSHFKGSGSGTQFTLTISDVQADDAATYFCQGSYDCTIADCVAFGGGTEVVVKGDPVAPTVLIFPPAADQVATGTVTIVCVANKYFPDVTVTWEVDGTTQTTGIENSKTPQNSADNTYNLSSTLTLTSTQYNSHKEYTCKVTQGTTSVVQSFNRGDC
